The data set concerns the molecule itself. The experiment in a line: non-reducing SDS-PAGE with immunoblot; 0.5 uM purified His-ALAD preincubated in PBS, untreated or oxidized (1 mM H2O2); non-reducing 10% SDS polyacrylamide gel; anti-His blot.

B1: recombinant His-tagged ALAD (ALAD1 without the predicted transit peptide) (enzyme, Arabidopsis thaliana, UniProt Q9SFH9 53-430, looked up)
chain: ASESGNGHAKKLGMSDAECEAAVAAGNVPEAPPVPPKPAAPVGTPIIKPLNLSRRPRRNRASPVTRAAFQETDISPANFVYPLFIHEGEEDTPIGAMPGCYRLGWRHGLVQEVAKARAVGVNSIVLFPKVPEALKNSTGDEAYNDNGLVPRTIRLLKDKYPDLIIYTDVALDPYSSDGHDGIVREDGVIMNDETVHQLCKQAVSQARAGADVVSPSDMMDGRVGAIRSALDAEGFQNVSIMSYTAKYASSFYGPFREALDSNPRFGDKKTYQMNPANYREALIEAREDEAEGADILLVKPGLPYLDIIRLLRDKSPLPIAAYQVSGEYSMIKAGGVLKMIDEEKVMMESLMCLRRAGADIILTYFALQAATCLCGEKR
notes: Arabidopsis thaliana ALAD1 (HEMB1; AT1G69740) without the predicted transit peptide (ChloroP); also called recombinant ALAD; purified ALAD; source: E. coli Rosetta(DE3), pET28a, purified (Ni-NTA agarose); not shown: His6, N-terminal, kept
Take B1: the binding result is listed as “binds”.
